Here are results for 2 molecules from patent US20140072613A1 (published 2014).

Holding throughout (experiment): cell-based or functional assay
The target in assay [1] is CDK5/p25(h) (human, UniProt Q00535 1-292; Q15078 99-307).
The target in assay [2] is T1, IKKα(h) (human, UniProt O15111 1-745).
T1 sequence (looked up): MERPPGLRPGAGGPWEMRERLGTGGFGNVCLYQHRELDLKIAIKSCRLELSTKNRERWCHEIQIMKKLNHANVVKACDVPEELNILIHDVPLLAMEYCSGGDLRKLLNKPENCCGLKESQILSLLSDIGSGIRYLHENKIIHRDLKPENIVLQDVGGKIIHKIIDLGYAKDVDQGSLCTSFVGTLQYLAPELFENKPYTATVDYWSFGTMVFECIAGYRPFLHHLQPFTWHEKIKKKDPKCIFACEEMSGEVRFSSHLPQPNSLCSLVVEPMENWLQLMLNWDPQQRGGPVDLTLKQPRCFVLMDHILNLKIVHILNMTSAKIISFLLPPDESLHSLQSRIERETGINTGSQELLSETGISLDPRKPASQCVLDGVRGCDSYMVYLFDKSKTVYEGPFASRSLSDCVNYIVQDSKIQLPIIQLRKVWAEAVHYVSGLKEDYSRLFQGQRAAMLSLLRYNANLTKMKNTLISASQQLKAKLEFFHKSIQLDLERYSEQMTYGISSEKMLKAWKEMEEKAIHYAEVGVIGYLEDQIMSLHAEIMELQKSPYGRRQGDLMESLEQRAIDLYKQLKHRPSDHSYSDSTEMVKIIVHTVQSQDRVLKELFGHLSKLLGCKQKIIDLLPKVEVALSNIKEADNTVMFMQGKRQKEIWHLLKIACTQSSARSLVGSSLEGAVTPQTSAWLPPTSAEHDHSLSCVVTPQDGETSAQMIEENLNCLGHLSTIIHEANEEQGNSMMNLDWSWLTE

In assay [3] the target is T2, PKG1β(h) (human, UniProt Q13976-2 1-686).
T2 sequence (looked up): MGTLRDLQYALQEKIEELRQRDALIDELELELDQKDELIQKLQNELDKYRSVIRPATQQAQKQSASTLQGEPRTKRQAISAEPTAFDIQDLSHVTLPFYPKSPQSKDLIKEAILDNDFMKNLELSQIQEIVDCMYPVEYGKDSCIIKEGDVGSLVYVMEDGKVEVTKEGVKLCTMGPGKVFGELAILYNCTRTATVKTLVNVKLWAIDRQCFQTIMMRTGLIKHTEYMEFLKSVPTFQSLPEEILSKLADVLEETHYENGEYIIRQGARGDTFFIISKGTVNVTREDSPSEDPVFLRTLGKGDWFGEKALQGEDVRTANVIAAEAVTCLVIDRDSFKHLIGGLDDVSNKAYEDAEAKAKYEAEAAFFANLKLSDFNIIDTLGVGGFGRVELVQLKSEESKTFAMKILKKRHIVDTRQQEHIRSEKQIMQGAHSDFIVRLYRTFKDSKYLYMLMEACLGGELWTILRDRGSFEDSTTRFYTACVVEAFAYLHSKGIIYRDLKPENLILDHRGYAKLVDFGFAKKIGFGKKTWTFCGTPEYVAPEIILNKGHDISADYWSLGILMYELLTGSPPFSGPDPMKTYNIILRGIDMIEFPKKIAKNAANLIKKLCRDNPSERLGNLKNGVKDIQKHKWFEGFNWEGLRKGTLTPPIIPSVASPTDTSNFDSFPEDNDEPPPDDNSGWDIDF

The target in assay [4] is MAPKAP-K2(h) (human, UniProt P49137 46-400).
Sequence of MAPKAP-K2(h) (P49137 46-400 limits assumed): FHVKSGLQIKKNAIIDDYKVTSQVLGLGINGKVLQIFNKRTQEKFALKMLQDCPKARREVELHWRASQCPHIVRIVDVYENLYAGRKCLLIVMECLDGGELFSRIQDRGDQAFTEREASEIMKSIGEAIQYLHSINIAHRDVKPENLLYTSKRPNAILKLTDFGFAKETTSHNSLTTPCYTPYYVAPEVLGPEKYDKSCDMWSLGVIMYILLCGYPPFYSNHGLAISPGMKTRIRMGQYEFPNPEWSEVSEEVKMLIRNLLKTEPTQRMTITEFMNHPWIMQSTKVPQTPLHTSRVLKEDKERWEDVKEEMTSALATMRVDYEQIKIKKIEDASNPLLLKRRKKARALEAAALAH
Assay [5] has as its target TrkB(h) (human, UniProt Q16620 455-822, limits assumed).
In assay [6] the target is Fes(h) (human, UniProt P07332 1-822, limits assumed).
Sequence of Fes(h) (P07332 whole entry): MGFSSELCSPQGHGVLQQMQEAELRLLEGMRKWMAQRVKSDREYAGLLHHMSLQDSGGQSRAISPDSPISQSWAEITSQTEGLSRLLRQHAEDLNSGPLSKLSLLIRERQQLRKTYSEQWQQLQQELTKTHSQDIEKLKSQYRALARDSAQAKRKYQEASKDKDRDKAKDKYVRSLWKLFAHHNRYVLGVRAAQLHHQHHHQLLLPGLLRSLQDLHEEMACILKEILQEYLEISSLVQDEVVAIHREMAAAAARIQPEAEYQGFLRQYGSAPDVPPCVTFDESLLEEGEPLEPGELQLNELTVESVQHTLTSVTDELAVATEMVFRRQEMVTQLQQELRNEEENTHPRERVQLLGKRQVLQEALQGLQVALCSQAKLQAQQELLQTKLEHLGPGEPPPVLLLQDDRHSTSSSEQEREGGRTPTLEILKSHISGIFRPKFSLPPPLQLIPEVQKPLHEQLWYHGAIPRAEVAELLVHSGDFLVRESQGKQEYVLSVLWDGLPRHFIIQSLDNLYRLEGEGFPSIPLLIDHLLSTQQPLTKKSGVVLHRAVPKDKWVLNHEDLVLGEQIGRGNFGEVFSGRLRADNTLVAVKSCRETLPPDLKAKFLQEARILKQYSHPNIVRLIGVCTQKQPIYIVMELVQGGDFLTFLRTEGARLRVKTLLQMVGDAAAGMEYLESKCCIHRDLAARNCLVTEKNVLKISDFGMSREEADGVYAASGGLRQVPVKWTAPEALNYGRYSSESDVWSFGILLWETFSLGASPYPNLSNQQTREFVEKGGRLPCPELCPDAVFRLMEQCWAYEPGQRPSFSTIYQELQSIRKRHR
The target of assay [7] is CLK3(h) (human, UniProt P49761 1-490, limits assumed).
Sequence of CLK3(h) (P49761 whole entry): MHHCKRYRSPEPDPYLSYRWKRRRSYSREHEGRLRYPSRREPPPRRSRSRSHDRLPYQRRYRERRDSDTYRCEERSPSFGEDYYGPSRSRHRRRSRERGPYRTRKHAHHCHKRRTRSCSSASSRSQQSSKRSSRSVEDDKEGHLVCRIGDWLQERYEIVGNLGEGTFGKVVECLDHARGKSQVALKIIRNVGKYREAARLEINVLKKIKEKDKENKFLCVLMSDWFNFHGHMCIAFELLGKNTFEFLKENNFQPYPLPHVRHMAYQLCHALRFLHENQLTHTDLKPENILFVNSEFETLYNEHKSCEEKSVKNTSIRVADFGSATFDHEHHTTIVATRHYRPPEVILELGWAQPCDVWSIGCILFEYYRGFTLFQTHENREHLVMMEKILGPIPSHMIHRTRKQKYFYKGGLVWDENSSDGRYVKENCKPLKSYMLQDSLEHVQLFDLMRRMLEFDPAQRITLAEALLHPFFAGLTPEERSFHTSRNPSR
Assay [8] addresses VRK2(h) (human, UniProt Q86Y07 1-508, limits assumed).
Assay [9] addresses CDK6/cyclinD3(h) (human, UniProt Q00534 1-326; P30281 1-292).
In assay [10] the target is PKCγ(h) (human, UniProt P05129 1-697).
Assay [11] has as its target T3, TBK1(h) (human, UniProt Q9UHD2 1-729).
T3 sequence (looked up): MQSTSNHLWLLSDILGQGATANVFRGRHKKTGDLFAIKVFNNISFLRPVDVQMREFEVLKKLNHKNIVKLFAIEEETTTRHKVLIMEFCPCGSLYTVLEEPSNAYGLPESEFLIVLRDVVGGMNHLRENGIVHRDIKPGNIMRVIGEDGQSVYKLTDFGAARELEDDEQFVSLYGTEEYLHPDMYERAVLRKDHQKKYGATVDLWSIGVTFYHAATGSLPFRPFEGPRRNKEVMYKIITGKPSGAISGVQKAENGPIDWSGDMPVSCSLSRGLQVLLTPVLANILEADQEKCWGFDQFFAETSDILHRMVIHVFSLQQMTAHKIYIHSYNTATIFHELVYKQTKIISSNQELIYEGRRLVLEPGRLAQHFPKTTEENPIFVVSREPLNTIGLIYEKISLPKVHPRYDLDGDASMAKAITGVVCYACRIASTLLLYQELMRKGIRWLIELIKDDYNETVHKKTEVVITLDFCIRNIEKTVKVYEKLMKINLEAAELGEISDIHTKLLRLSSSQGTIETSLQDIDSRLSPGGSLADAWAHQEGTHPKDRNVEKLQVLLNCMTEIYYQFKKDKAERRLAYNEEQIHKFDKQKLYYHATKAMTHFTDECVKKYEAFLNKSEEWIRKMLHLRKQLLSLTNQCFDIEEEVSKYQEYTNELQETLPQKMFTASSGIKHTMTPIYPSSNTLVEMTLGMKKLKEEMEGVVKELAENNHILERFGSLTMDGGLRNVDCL

For assay [12], the target named is CDK7/cyclinH/MAT1(h) (human, UniProt P50613 1-346; P51946 1-323; P51948 1-309).
Sequence of CDK7/cyclinH/MAT1(h) (P50613 whole entry, chain 1 of 3): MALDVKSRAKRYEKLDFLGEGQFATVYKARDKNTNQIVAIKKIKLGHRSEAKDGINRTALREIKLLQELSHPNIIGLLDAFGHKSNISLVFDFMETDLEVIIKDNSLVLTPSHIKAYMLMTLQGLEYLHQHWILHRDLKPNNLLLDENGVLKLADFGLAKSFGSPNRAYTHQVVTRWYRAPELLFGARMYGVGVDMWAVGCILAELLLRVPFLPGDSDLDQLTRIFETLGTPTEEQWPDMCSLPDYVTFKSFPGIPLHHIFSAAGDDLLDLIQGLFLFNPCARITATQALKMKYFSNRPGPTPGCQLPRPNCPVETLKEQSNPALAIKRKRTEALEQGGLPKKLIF
Sequence of CDK7/cyclinH/MAT1(h) (P51946 whole entry, chain 2 of 3): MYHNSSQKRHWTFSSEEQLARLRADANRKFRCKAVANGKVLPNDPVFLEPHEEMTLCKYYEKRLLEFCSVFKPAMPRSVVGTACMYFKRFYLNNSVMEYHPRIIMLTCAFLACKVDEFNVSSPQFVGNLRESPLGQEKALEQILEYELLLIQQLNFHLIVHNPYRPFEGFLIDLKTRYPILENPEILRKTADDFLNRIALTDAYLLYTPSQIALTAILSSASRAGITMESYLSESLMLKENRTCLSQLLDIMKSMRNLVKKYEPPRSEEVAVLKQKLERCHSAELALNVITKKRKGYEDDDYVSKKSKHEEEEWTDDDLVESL
Sequence of CDK7/cyclinH/MAT1(h) (P51948 whole entry, chain 3 of 3): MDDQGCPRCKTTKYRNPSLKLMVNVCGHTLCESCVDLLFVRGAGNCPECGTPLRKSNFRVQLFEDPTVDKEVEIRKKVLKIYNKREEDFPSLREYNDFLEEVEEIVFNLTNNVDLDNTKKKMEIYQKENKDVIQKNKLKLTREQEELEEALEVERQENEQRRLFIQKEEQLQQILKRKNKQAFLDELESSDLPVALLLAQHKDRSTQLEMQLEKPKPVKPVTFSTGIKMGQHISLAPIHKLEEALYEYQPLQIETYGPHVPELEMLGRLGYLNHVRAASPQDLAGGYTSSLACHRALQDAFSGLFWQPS

Sequence of VRK2(h) (Q86Y07 whole entry): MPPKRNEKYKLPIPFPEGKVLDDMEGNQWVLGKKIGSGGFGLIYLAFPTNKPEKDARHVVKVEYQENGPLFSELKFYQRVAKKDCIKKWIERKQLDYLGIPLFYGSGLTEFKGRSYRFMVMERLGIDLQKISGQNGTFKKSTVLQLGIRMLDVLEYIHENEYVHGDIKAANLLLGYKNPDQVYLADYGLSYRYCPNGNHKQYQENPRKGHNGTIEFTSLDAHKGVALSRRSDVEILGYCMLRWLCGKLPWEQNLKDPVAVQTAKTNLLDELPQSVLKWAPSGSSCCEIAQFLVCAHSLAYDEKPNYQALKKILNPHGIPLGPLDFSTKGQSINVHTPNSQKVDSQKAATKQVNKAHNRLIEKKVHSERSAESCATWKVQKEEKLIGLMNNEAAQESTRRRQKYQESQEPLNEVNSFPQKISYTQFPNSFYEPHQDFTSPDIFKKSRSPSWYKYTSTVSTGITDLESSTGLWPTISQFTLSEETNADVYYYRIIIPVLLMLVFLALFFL
Sequence of CDK6/cyclinD3(h) (Q00534 whole entry, chain 1 of 2): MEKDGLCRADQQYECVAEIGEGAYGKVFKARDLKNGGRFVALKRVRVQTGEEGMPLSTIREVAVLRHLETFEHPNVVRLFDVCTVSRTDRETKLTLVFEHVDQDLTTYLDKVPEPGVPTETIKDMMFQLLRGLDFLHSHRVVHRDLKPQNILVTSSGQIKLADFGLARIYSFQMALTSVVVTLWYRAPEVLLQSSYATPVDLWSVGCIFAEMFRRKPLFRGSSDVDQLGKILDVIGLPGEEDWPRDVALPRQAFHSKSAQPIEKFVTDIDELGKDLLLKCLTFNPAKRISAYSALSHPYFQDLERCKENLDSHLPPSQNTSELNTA
Sequence of CDK6/cyclinD3(h) (P30281 whole entry, chain 2 of 2): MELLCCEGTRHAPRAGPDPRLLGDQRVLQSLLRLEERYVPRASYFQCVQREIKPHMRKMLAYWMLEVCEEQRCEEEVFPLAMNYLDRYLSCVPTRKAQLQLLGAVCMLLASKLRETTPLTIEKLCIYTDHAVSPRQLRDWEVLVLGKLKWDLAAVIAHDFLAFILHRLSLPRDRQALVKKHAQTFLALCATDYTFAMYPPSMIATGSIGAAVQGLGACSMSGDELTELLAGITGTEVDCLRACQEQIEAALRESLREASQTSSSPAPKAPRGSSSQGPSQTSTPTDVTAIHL
Sequence of TrkB(h) (Q16620 455-822 limits assumed): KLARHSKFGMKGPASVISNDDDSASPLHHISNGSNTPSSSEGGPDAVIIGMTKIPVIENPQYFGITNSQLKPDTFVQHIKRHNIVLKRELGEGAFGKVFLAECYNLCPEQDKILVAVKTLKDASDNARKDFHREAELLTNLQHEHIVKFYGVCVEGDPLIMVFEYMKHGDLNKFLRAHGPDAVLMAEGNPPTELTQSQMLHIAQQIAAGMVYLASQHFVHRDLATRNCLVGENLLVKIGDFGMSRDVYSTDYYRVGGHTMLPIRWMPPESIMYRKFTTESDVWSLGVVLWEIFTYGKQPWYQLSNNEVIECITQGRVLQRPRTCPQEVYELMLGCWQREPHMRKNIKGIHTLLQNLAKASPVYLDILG

On to FAKLAARLYRKALARQLGVAA [MMI-0300], for which the “% activity, 100 µM” value stood at 89% in [1]; 93% in assay [2]; 50% in assay [3]; 5% in [4]; 5% in assay [5]; 20% in assay [6]. Besides, the “% activity, 100 µM” value in assay [7] was found to be 61%; in [8], 161%; in assay [9], 86%; in [10], 89%; in [11], 37%; in assay [12], 65%.
As to KAFAKLAARLYRKALARQLGVAA [MMI-0400], the “% activity, 100 µM” value in assay [1] came to 192%; in [2], 87%; in [3], 53%; in assay [4] it was 5%; in [5] it was 8%; in [6] it was 16%. The “% activity, 100 µM” value in assay [7] came out at 84%; in [8], 185%; in assay [9] it was 85%; in assay [10], 79%; in [11] it was 39%; in assay [12] it was 47%.
